# Laboratory results: publication PMC3285596 (PLoS Pathogens, 2012)
# B1: Ebola virus (Zaire) VP24 residues 1-233 (EBOV_(1–233)) (domain or fragment)
# chain: MAKATGRYNLISPKKDLEKGVVLSDLCNFLVSQTIQGWKVYWAGIEFDVTHKGMALLHRLKTNDFAPAWSMTRNLFPHLFQNPNSTIESPLWALRVILAAGIQDQLIDQSLIEPLAGALGLISDWLLTTNTNHFNMRTQRVKEQLSLKMLSLIRSNILKFINKLDALHVVNYNGLLSSIEIGTQNHTIIITRTNMGFLVELQEPDKSAMNRMKPGPAKFSLLHESTLKAFTQG
# Molecular target: T1, STAT1_(1–683), truncated, unphosphorylated human STAT1 (human, UniProt P42224 1-683)
# T1 construct: also called unphosphorylated STAT1_(1–683); not shown: HA, C-terminal, kept
# T1 sequence (looked up): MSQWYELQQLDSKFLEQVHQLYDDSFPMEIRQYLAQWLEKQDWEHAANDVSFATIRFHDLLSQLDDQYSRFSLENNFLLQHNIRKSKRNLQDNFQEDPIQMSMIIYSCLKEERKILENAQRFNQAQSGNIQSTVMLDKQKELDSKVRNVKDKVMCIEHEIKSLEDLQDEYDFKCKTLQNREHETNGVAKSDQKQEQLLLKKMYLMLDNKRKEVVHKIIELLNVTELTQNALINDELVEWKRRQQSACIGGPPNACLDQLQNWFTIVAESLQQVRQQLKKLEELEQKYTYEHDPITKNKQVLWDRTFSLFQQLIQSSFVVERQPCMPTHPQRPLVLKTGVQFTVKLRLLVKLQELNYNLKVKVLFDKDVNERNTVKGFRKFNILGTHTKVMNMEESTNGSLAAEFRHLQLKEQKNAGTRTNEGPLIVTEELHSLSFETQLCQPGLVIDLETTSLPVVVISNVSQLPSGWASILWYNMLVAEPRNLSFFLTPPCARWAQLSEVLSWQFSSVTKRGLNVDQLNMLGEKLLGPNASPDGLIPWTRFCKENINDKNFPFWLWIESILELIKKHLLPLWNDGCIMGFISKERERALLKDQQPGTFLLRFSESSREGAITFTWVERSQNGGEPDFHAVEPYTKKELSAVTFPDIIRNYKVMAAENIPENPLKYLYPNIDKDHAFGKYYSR
# Assay: ELISA
# Conditions: both partners purified
binder,measurement,value
B1,binding result,binds
